In patent US20230295310A1 (ABCELLERA BIOLOGICS, published 2023):

Target: human EGFR, C-terminal eGFP-tagged, on CHO-K1 cells (human, UniProt P00533 25-1210)
Test: cell-based or functional assay

B1: GOMP001_bsAb_030 (bispecific antibody, human IgG1, kappa, L234A L235A)
heavy 1: QVQLVQSGAEVKKPGASVKVSCKASGYTVTGYYMHWVRYAPGQGLEWMGWINPNSGGTNFAQRFQGRVTMTRDTSISTFYMDLNRLRSDDTAVYYCARGGAPVSYWFFDLWGRGTLVTVSSASTKGPSVFPLAPSSKSTSGGTAALGCLVKDYFPEPVTVSWNSGALTSGVHTFPAVLQSSGLYSLSSVVTVPSSSLGTQTYICNVNHKPSNTKVDKKVEPKSCDKTHTCPPCPAPEAAGGPSVFLFPPKPKDTLMISRTPEVTCVVVDVSHEDPEVKFNWYVDGVEVHNAKTKPREEQYNSTYRVVSVLTVLHQDWLNGKEYKCKVSNKALPAPIEKTISKAKGQPRRPRVYTLPPSREEMTKNQVSLVCLVKGFYPSDIAVEWESNGQPENNYKTTPPVLDSDGSFFLYSVLTVDKSRWQQGNVFSCSVMHEALHNHYTQKSLSLSPG
light 1: DIQMTQSPSSLSASVGDRVTITCRASQSISRYLNWYQRKPGDAPKVLIYNTSSLKSGVPSRFSGSGSGTDFTLTISSLQPEDFGTFYCQQSHSTPFTFGPGTKVDIKRTVAAPSVFIFPPSDEQLKSGTASVVCLLNNFYPREAKVQWKVDNALQSGNSQESVTEQDSKDSTYSLSSTLTLSKADYEKHKVYACEVTHQGLSSPVTKSFNRGEC
heavy 2: QVQLVQSGAEVKKPGASVKVSCKASGYTFTSHWMHWVRYAPGQGLEWIGEFNPSNGRTNYNEKFKSKATMTVDTSTNTAYMELSSLRSEDTAVYYCASRDYDYDGRYFDYWGRGTLVTVSSASTKGPSVFPLAPSSKSTSGGTAALGCLVKDYFPEPVTVSWNSGALTSGVHTFPAVLQSSGLYSLSSVVTVPSSSLGTQTYICNVNHKPSNTKVDKKVEPKSCDKTHTCPPCPAPEAAGGPSVFLFPPKPKDTLMISRTPEVTCVVVDVSHEDPEVKFNWYVDGVEVHNAKTKPREEQYNSTYRVVSVLTVLHQDWLNGKEYKCKVSNKALPAPIEKTISKAKGQPRRPRVYTLPPSREEMTKNQVSLVCLVKGFYPSDIAVEWESNGQPENNYKTTPPVLDSDGSFFLYSVLTVDKSRWQQGNVFSCSVMHEALHNHYTQKSLSLSPG
light 2: DIQMTQSPSSLSASVGDRVTITCSASSSVTYMYWYQRKPGDAPKLLIYDTSNLASGVPSRFSGSGSGTDYTFTISSLQPEDIATYYCQQWSSHIFTFGQGTKVEIKRTVAAPSVFIFPPSDEQLKSGTASVVCLLNNFYPREAKVQWKVDNALQSGNSQESVTEQDSKDSTYSLSSTLTLSKADYEKHKVYACEVTHQGLSSPVTKSFNRGEC
B1 was tested, and the “EC50 CHO-K1 EGFR Low (nM); T cell activation bioassay, luciferase” value was 0.0644 nM and the “EC50 CHO-K1 EGFR Med (nM); T cell activation bioassay, luciferase” value was 0.00272 nM.
